B1: TPR 5TU (parent)
chain: GGAUCUUCUCGAUCUAACAAAAAAGACAAAUCUGCCACAAAGCUUGAGAGCAUCUUCGGAUGCAGAGGCGGCAGCCUUCGGUGGCGCGAUAGCGCCAACGUUCUCAACUAUGACACGCAAAACGCGUGCUCCGUUGAAUGGAGUUUAUCAUG

This sample holds only a part of the variants without activity. Bounds are passed on as bounds.

The variants in this data set derive from B1. Briefly: polymerase ribozyme fitness, log enrichment relative to wild type (log ratio); higher = more active; in vitro selection for triplet polymerase activity. In a few lines:
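After PCR construction and transcription, each subunit's mutant library from a heterodimeric triplet polymerase ribozyme was annealed with a biotinylated primer, the partner subunit and triplets. Incubation was frozen, at −7 °C, and extended constructs were gel-excised, bound to streptavidin beads and amplified by RT-PCR, in one selection round done in triplicate. Fitness is the logarithm of a genotype's enrichment divided by that of the wild type, from inverse-variance-weighted replicate averages of Illumina-sequenced inputs and outputs. The base of the logarithm is 2, and genotypes needed ≥10 input reads and ≥1 read per output.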
As to A28C C87A C108G U146C, the “polymerase ribozyme fitness (log ratio)” value is at most -4.2.
Next, C54U C85U A98G U134A: -3.35; U53G U61A C85U G94U A97U G152A: at most -4.2.
The result for A24U U44A C57G G74U C76A G100A A138C reads at most -4.2; that for U33C C57U U61A G84A U101G G140U U145A, -4.
Next, A39G G46A U56A C93U C108A: at most -4.2; C36U A49C C95A U145C: at most -4.2.
For the variant A115G A122U G124C, the “polymerase ribozyme fitness (log ratio)” value is -1.96.
In the case of U53A G86C A91U G136A, the “polymerase ribozyme fitness (log ratio)” value was at most -4.2.
As for C43U A52C G83U A91U, the “polymerase ribozyme fitness (log ratio)” value is at most -4.2.
The result for C96G U148G reads -4.12; that for U55G U56A U82A U145A, -1.23; that for G140U G143A, at most -4.2.
With C43U C87U, the “polymerase ribozyme fitness (log ratio)” value is -3.73.
For the variant U82G A142C, the “polymerase ribozyme fitness (log ratio)” value is -0.83.
With A3U U7G A39C U56A G83C C132U U144C U145C C149A, the “polymerase ribozyme fitness (log ratio)” value is at most -4.2.
The result for A3U A52C C75U G92U C103G U134G reads at most -4.2; that for G92C C114U U151G, -4.12; that for A12C U56A G88U, -3.41.
The result for C18G A29U U44G U55G C57A C93U U104G reads at most -4.2.
Next, C43A U44G U45A: at most -4.2; A26C C32U G48C G143A: at most -4.2.
A3C C85A: the “polymerase ribozyme fitness (log ratio)” value is -2.55.
Next, A28U G84A C125U G126A G152U: at most -4.2; U82A C108U: -2.39.
The result for U53C C87G U101A reads at most -4.2; that for G34C U61G A150G, at most -4.2; that for U53A C76A C87U A107C, at most -4.2.
Next, G59C G81U C95U G141A: -3.32; A40G G71U G86U: at most -4.2.
On to C18U C95U, for which the “polymerase ribozyme fitness (log ratio)” value was -0.678.
As for A29G C54U G59A C76U U82C G88C C95G C96G, the “polymerase ribozyme fitness (log ratio)” value was at most -4.2.
The result for U45A A66G G80A A142G reads at most -4.2.
Next, G46A C75U C85A A106G: at most -4.2; C54G G71C C85U C93U U144G: at most -4.2.
The result for U53A C54A G59U A64U C93G A137C reads at most -4.2; that for U55A C79A, at most -4.2; that for C27U C76G G88A C93G G100U, at most -4.2.
For A41U C54A C93A G126U, the “polymerase ribozyme fitness (log ratio)” value is at most -4.2.
The result for G83U G141C reads -1.18; that for A3G A19G A28U C99U U130G, at most -4.2.
Next, U4A A17G A47G G68U C69G G88U G124A U127A G128C G140U U145G: at most -4.2.
Next, A47U C103G A115G G140C: at most -4.2.
As for U9A C87U, the “polymerase ribozyme fitness (log ratio)” value is -2.96.
Take U102G U144C: the “polymerase ribozyme fitness (log ratio)” value was -3.06.
For A17U U31A C57U C76U C96G C103G U146C, the “polymerase ribozyme fitness (log ratio)” value was at most -4.2.
Next, C5G G124C: -0.88; U53G G83C: -3.03.
Next, A37C A41C U53A U56G G59A C79U C87A A113U U134A: at most -4.2; C43U C51U U53G A73G C96G G126U: at most -4.2; A22C G42U A47G C76G A91G A106U A110G: at most -4.2.
Turning to C69U A115U C123U, the “polymerase ribozyme fitness (log ratio)” value is -1.62.
The result for C5A A52C A73U U82C C85U G136U reads at most -4.2; that for A28U U45A U78G G81C C116G G136U, at most -4.2.
Next, G50C A52C C79A C116G C125G C132G: at most -4.2; A23U A30C C35A A106C: at most -4.2.
Turning to C14G A52C C85A, the “polymerase ribozyme fitness (log ratio)” value is at most -4.2.
In the case of C57U G71U, the “polymerase ribozyme fitness (log ratio)” value was -1.94.
Next, A22C A30G A60G G68A C85A A91C G126A: at most -4.2.
The result for U31G U33A A89G U144C U146A reads -4.01.
The result for U139A U146A reads at most -4.2; that for U13C A22G U61A G83A, -3.83; that for U44A A60G G67A G92U C105A, at most -4.2.
Regarding A37U A98U, the “polymerase ribozyme fitness (log ratio)” value was -0.971.
The result for C32A A52G U53A G65C C99U G143U reads at most -4.2.
Next, A19G A26U G84A A147G: -3.45; G83A G140C: -3.99; C35G C85U: at most -4.2.
The result for U6G A40C U144A reads 0.287.
For the variant C57U A73G G143U U145G, the “polymerase ribozyme fitness (log ratio)” value was at most -4.2.
In the case of C10U A52G G67U C69A, the “polymerase ribozyme fitness (log ratio)” value is at most -4.2.
The result for G92U G136A reads 0.353; that for G25C U53G C57A A120C G128A, at most -4.2; that for U55G A98G U139G, -0.271.
The result for U6C A26G A29U A73G C96A U104G reads -3.88; that for G50C G86C, at most -4.2.
G67C G88U C149A: the “polymerase ribozyme fitness (log ratio)” value is at most -4.2.
Next, A52C G92U C116G: -1.7.
Next, U9G A89U C95A: at most -4.2.
Next, C57U A64G: -3.91; C35U G58U C87U C114A A119C: -4.
As to U33G A98U G124C, the “polymerase ribozyme fitness (log ratio)” value is -3.27.
In the case of G67U C96G, the “polymerase ribozyme fitness (log ratio)” value was -3.31.
Next, C57G A91U A147U: at most -4.2.

These data come from the RNAGym collection of RNA variant scans (doi:10.1073/pnas.2313332121).
